Drawing on patent publication US20200369772A1 (ABBA THERAPEUTICS, published 2020), this text covers EC50, binding result and IC50 for seven molecules.

Positions count from the first letter of the chain named. Names and notes keep the numbering of the source.

Test [1] concerns the target T1, human PD-L2 (full-length, on cells) (human, UniProt Q9BQ51 20-273).
T1 chain: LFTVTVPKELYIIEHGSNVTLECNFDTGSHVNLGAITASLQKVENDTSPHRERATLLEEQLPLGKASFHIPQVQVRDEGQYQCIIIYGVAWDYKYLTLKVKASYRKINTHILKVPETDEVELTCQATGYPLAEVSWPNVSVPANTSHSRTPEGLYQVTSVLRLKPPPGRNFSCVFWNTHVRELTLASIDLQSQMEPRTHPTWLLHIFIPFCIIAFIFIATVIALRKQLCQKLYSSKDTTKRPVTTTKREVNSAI
As to the kind of experiment: FACS binding to CHO-K1 cells expressing human PD-L2. An outline of the steps: (§1)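 CHO-K1 cells stably expressing full-length human PD-L2 were stained for 20 min at 4° C with an APC-labelled anti-rat IgG or anti-human IgG Fc suited to the antibody format. Binding was read by flow cytometry on a BD FACSCalibur, and binding EC50 was obtained by non-linear fitting of percentage of maximal binding against concentration in GraphPad Prism.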
(In general: In flow cytometry, cells or beads pass a laser one at a time.)

In test [2] the target is T2, human PD-L2 (full-length, on cells) (human, UniProt Q9BQ51 20-273).
T2 construct: whole, on cells; CHO-K1 cells stably expressing full-length human PD-L2; also endogenous on NCI-H226 and transfected in Jurkat cells; also called hPD-L2; CHO-K1/hPD-L2
T2 sequence (looked up): T1 chain
As to the kind of experiment: FACS binding on cells expressing human PD-L2 (per the examples).

The target in test [3] is T3, human PD-L1 (full-length, on cells) (human, UniProt Q9NZQ7 19-290).
T3 construct: whole, on cells; HEK293 cells stably expressing full-length human PD-L1
In words: FACS on HEK293T cells expressing human PD-L1. The procedure: HEK293T cells expressing human PD-L1 were incubated with chimeric anti-PD-L2 antibodies. Cells were washed and binding was detected with an FITC-labelled anti-rat IgG Ab (Thermo Fisher Scientific). Flow cytometric analyses were performed using a FACSCalibur flow cytometer (Becton Dickinson). PE-labelled anti-human PD-L1 clone MIH1 served as positive control. All peaks overlap except for the positive control in FIG. 7F.
(§2) The ability of anti-PD-L2 antibodies binding to mouse PD-L2, human PD-L1 or cyno PD-L2 was determined by FACS. HEK293 cells stably expressing full-length monkey PD-L2, mouse PD-L2 or human PD-L1 were established, subcloned and verified. For binding assay, 1.5×10⁵ cells in 100 μl of FACSwash buffer were incubated with individual anti-PD-L2 antibodies (0.5 μg/ml) for 30 min. After three times of washing, the cells were re-suspended in FACSwash buffer containing FITC-labelled goat-anti-rat IgG (Thermo Fisher, 1:1000) or APC-labelled goat-anti-ratIgG (Biolegend, Clone Poly4054) at a 1:2000 dilution for 20 min at 4° C., washed three times and subsequently subjected to FACS analysis. FACS data was analysed using FlowJo Software and depicted as histograms including secondary antibody only controls.

In test [4] the target is T4, mouse PD-L2 (full-length, on cells) (mouse, UniProt Q9WUL5 20-247).
T4 construct: whole, on cells; HEK293 cells stably expressing full-length mouse PD-L2
T4 sequence (looked up): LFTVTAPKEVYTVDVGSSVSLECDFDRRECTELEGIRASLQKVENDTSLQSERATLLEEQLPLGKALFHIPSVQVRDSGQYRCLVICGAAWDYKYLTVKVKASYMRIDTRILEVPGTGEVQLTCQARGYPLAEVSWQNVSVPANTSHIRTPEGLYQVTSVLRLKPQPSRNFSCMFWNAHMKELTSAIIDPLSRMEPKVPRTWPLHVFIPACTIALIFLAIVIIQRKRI
In words: FACS on HEK293T cells expressing mouse PD-L2. The procedure:
HEK293T cells expressing mouse PD-L2 were incubated with chimeric anti-PD-L2 antibodies. Cells were washed and binding was detected with an FITC-labelled anti-rat IgG Ab (Thermo Fisher Scientific). Flow cytometric analyses were performed using a FACSCalibur flow cytometer (Becton Dickinson). PE-labelled anti-mouse PD-L2 clone TY25 served as positive control. All peaks overlap except for the positive control in FIG. 6F.
as §2

Test [5] has as its target T1, human PD-L2 (full-length, on cells). In words: blocking of hPD-1 binding to CHO-K1/hPD-L2 cells. An outline of the steps:
(§3)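 IC50 values were obtained with GraphPad Prism by non-linear curve fitting of flow cytometry data on PD-1 binding to PD-L2-expressing cells. For this, 1.5×10⁵ CHO-K1 cells stably carrying human PD-L2 were incubated for 30 min at 4° C with antibody in serial dilutions from 0.25 ng/ml to 4 μg/ml, then for 30 min at 4° C with 0.5 μg/ml recombinant human PD-1-mouse Fc. Detection used fluorochrome-conjugated anti-mouse IgG2a at 1:200 for 20 min at 4° C, with reference wells fixing 0% and 100% binding.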

Test [6] addresses T5, recombinant human PD-L2-Fc-biotin (human, UniProt Q9BQ51 20-220, biotin).
T5 chain: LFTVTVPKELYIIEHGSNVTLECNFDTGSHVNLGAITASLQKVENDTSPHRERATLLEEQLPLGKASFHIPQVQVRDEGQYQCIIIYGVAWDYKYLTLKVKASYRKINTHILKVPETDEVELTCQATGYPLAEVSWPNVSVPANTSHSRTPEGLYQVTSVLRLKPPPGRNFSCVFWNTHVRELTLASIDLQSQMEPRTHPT
As to the kind of experiment: FACS blocking of hPD-L2 binding to HEK293T-hPD-1; low antigen concentration. The method, boiled down:
(§4)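 Serially diluted antibody (0.03 ng/ml-0.5 μg/ml) was preincubated for 60 min at 4° C with recombinant human PD-L2-Fc-biotin (5 ng/ml, 100 pM) in 100 μl. The mixture was added for 30 min at 4° C to 1.5×10⁵ HEK293 cells stably expressing human PD-1. Bound ligand was detected with fluorochrome-conjugated streptavidin (20 min, 4° C) by flow cytometry, with unspecific IgG wells setting 0% and 100% binding. IC50 came from non-linear curve fitting in GraphPad Prism.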

The target of test [7] is T1, human PD-L2 (full-length, on cells). As to the kind of experiment: FACS blocking of PD-1 binding to CHO-K1/hPD-L2; high antigen concentration. An outline of the steps: as §3
The target in test [8] is T3, human PD-L1 (full-length, on cells). In words: FACS on HEK293 cells stably expressing full-length human PD-L1. The procedure: as §2
Test [9] concerns the target T5, recombinant human PD-L2-Fc-biotin. In words: blocking of hPD-L2 binding to HEK293-hPD-1 cells. An outline of the steps:
as §4

The target of test [10] is T4, mouse PD-L2 (full-length, on cells). As to the kind of experiment: FACS on HEK293 cells stably expressing full-length mouse PD-L2. On the procedure: as §2
The target in test [11] is T1, human PD-L2 (full-length, on cells). As to the kind of experiment: FACS binding to CHO-K1 cells expressing human PD-L2. The method, boiled down:
as §1

Test [12] has the same target. In words: FACS, NCI-H226 cells. The method, boiled down: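 Flow cytometry on a BD FACSCalibur was used to measure binding to endogenous PD-L2 on NCI-H226 human lung squamous carcinoma cells, with 1.5×10⁵ cells used. Staining was done with APC-labelled goat anti-rat IgG at 1:2000 for 20 min at 4° C. The binding EC50 was obtained in GraphPad Prism by non-linear fitting of percentage of maximal binding against concentration.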

For test [13] the target is unchanged. In words: FACS, CHO-K1 expressing human PD-L2. The method, boiled down: as §1
In test [14] the target is T2, human PD-L2 (full-length, on cells). In words: FACS on CHO-K1 cells expressing human PD-L2, against the parental antibody. The method, boiled down:
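Sequence-optimised antibodies expressed in HEK293 cells and their parental antibodies were incubated at different concentrations with CHO-K1 cells expressing human PD-L2. Cells were washed and binding was detected with an APC-labelled anti-human Fc antibody by flow cytometry on a FACSCalibur.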

T3 sequence (Q9NZQ7 19-290): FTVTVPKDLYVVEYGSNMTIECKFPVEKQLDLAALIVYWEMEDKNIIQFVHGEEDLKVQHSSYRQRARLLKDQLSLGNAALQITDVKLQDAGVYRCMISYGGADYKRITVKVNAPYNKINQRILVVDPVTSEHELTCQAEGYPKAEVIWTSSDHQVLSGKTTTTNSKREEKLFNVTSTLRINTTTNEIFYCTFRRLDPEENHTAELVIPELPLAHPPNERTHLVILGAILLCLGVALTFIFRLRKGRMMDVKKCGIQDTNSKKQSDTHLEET

B1: 10D1-G1 N31Q.N92Q.LC (antibody, V domains shown)
VH: QVQLQESGPGLVKPSGTLSLTCAVSGGSISSSYWWSWVRQPPGKGLEWIGEIFHIGSTNYNPSLRSRVTISVVKSKNQFSLNLNSVTAADTAVYFCARVSGGYGYFSGMDVWGQGTTVTVSS
VL: DIQMTQSPSSLSASVGDRVTITCRASQGIRQDLGWYQQKPGKAPKRLIYGASSLQSGVPSRFSGSGSGTEFTLTISSLQPEDFATYYCLQHQSYPRTFGQGTKVEIK
notes: Optimized variant of 10D1-G1; also called 10D1-G1 N31Q.N920.LC
B1: in test [1], the response was half-maximal at 0.32 nM (EC50). In addition, the results for the binding result in test [2], in test [3] and in test [4] were “binds”, “no binding” and “no binding”, respectively.

B2: 10A9-D2 N31Q.LC (antibody, V domains shown)
VH: QVQLQESGPGLVKPSETLSLTCAVSGGSISSSYWWSWVRQPPGKGLEWVGEVFHVGVTNYNPSLKSRVTISVDKSKNQFSLKLTSVTAADTAVYYCARVTGTTGYYHGLDVWGQGTTVTVFS
VL: B1 VL with A43V, G50A, V58I, Q92N, S93N
notes: Optimized variant of 10A9-D2
As to B2, in [1], the response was half-maximal at 0.32 nM (EC50). Further, the binding result in test [2] is given as “binds”; in test [3], “no binding”; in test [4], “no binding”.

B3: 2C4-E4 (antibody, V domains shown)
VH: QVQLVQSGAEVKKPGASVKVSCKASGYTFTGYVMHWVRQAPGQRLEWMGWINADNGITKYSQKFQGRVTITRDTSASTAYMELTNLRSEDTAVYYCARATRGFGEFYFDYWGQGNLVTVSS
VL: DIQMTQSPSTLSASVGDRVTITCRASQTISSWLAWYQQKPGKAPNLLIYKASSLESGVPSRFSGSGSGTEFTLTISSLQPDDFATYYCQQYYSYWTFGQGTKVEIK
notes: Both formats under this entry
Consider B3, for which the IC50 in test [5] stood at 0.53 nM; in [6], 0.0215 nM; in test [7], 0.612 nM; in test [9] it was 0.02 nM. The binding result in test [8] is recorded as “no binding (tested: 0.5 µg/ml)”; in test [2], “binds”; in test [10], “no binding (tested: 0.5 µg/ml)”. Also, the concentration giving a half-maximal response (EC50) in test [11] was determined as 0.45 nM; in test [12], 0.134 nM; in test [13] it was 0.485 nM.

B4: 19B3-B3 M23K.M63L.HC (antibody, V domains shown)
VH: QVQLVQSGAEVKKPGASVKVSCKASGYTFTNYAIHWVRQAPGQRLEWMGWINTGLGKPKYSQLFQDRVTITRDTSASTASMELSGLRSDDTAVYYCARVGWELYFDYWGQGTLVTVSS
VL: B3 VL with T28S, W32L, N45K, Y87F, Y92N
notes: Optimized variant of 19B3-B3
The molecule B4 had a concentration for a half-maximal effect (EC50) in test [1] of 0.38 nM. For the same molecule, the results for the binding result in test [2], in test [3] and in [4] were “binds”, “no binding” and “no binding”, respectively.

B5: 19B3-B3 N92Y.LC.M23K.M63L.HC (antibody, V domains shown)
VH: B4 VH
VL: B3 VL with T28S, W32L, N45K, Y87F
notes: Optimized variant of 19B3-B3
As for B5, the binding result in test [3] is on record as “no binding”; in test [4], “no binding”; in test [14], “binds”.

B6: 19B3-B3 N92Q.LC.M23K.M63L.HC (antibody, V domains shown)
VH: B4 VH
VL: B3 VL with T28S, W32L, N45K, Y87F, Y92Q
notes: Optimized variant of 19B3-B3
Take B6: the results for the binding result in test [3], in [4] and in [14] were “no binding”, “no binding” and “binds”, respectively.

B7: 19C3-B3 (antibody, V domains shown)
VH: QVQLVESGGGVVQPGRSLRLSCAASGFAFSAYGMHWVRQAPGKGLEWVAISWYDGSNNYHADSVKGRFTISRDSSKNTLYLQMNSLRAEDTAVYYCAKSIGVARHYYYGMDVWGQGTTVTVSS
VL: SYELTQPPSVSVSPGQTASITCSGEELGDKYACWYQQKPGQSPLLVIYQDSKRPSGIPERFSGSNSGNAATLTISGTQAMDEADYYCQAWDSITVIFGGGTKLTVLG
notes: Both formats under this entry; also called 19C3-C3
B7: the IC50 was 0.43 nM in test [5], 0.0151 nM in [6], 0.454 nM in test [7] and 0.013 nM in test [9]. Further, the binding result was “no binding (tested: 0.5 µg/ml)” in [8], “binds” in test [2] and “no binding (tested: 0.5 µg/ml)” in [10]. In addition, the EC50 was 0.44 nM in [11], 0.102 nM in [12] and 0.311 nM in [13].

In general, EC50 refers to the midpoint of the concentration-response curve. A word on the IC50: it is the point on the concentration scale where inhibition reaches its midpoint.
